In publication PMC9234707 (2022) one finds Kd data, which are given here for five molecules.

The assay addresses ACVR2A (Homo sapiens (Human), UniProt P27037). The assay can be described thus: SPR, receptor-Fc dimer captured (avidity), single 80 nM injections. (In general: Surface plasmon resonance follows binding to a sensor surface in real time, without labels.)

Chain of ACVR2A (P27037 26-118): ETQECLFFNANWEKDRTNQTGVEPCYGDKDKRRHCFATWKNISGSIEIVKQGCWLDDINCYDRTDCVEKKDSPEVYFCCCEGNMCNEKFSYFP

B1: Nodal (protein)
chain 1: DRSQLCRKVKFQVDFNLIGWGSWIIYPKQYNAYRCEGECPNPVGEEFHPTNHAYIQSLLKRYQPHRVPSTCCAPVKTKPLSMLYVDNGRVLLDHHKDMIVEECGCL
chain 2: B1 chain 1
Turning to B1, the Kd is greater than 80 nM.

B2: BMP15 (protein)
chain 1: PENNQCSLHPFQISFRQLGWDHWIIAPPFYTPNYCKGTCLRVLRDGLNSPNHAIIQNLINQLVDQSVPRPSCVPYKYVPISVLMIEANGSILYKEYEGMIAESCTCR
chain 2: B2 chain 1
Regarding B2, the Kd was greater than 80 nM.

B3: BMP10 (protein)
chain 1: AKGNYCKRTPLYIDFKEIGWDSWIIAPPGYEAYECRGVCNYPLAEHLTPTKHAIIQALVHLKNSQKASKACCVPTKLEPISILYLDKGVVTYKFKYEGMAVSECGCR
chain 2: B3 chain 1
Turning to B3, the Kd stood at 1 nM.

B4: ActivinB (protein)
chain 1: GLECDGRTNLCCRQQFFIDFRLIGWNDWIIAPTGYYGNYCEGSCPAYLAGVPGSASSFHTAVVNQYRMRGLNPGTVNSCCIPTKLSTMSMLYFDDEYNIVKRDVPNMIVEECGCA
chain 2: B4 chain 1
Regarding B4, the Kd came out at 0.053 nM.

B5: GDF11 (protein)
chain 1: GLDCDEHSSESRCCRYPLTVDFEAFGWDWIIAPKRYKANYCSGQCEYMFMQKYPHTHLVQQANPRGSAGPCCTPTKMSPINMLYFNDKQQIIYGKIPGMVVDRCGCS
chain 2: B5 chain 1
B5 returned a Kd of 0.052 nM.
